The text below walks through data of paper PMC10996701.

The series deals with yeast RPA (yRPA, ScRPA) (Saccharomyces cerevisiae, UniProt P22336;P26754;P26755 1-621;1-273;1-122). Briefly: DEER.
Chain of yeast RPA (yRPA, ScRPA) (P22336 whole entry, chain 1 of 3): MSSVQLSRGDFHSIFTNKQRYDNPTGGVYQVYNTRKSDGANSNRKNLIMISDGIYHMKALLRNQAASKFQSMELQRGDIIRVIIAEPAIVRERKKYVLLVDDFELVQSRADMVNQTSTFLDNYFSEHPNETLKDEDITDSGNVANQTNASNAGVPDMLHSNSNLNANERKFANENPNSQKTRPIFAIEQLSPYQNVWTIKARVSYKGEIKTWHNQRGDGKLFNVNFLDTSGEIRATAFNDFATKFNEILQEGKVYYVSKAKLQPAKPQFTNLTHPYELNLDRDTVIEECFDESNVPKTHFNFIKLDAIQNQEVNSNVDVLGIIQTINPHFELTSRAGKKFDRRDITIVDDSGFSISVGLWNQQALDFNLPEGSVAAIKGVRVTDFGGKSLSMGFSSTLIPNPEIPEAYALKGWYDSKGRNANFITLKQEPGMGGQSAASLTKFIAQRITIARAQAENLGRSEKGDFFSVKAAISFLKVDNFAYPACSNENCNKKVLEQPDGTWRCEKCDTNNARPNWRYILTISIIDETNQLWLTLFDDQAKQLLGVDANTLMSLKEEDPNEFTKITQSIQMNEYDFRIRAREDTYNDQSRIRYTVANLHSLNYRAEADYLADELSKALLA
Chain of yeast RPA (yRPA, ScRPA) (P26754 whole entry, chain 2 of 3): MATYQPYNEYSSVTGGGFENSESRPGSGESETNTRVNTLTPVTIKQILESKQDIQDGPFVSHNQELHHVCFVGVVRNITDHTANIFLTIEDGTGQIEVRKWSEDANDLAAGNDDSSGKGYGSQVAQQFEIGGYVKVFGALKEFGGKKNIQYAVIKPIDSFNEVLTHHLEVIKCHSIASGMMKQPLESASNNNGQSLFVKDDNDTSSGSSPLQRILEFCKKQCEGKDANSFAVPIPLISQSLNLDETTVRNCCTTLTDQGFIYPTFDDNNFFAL
Chain of yeast RPA (yRPA, ScRPA) (P26755 whole entry, chain 3 of 3): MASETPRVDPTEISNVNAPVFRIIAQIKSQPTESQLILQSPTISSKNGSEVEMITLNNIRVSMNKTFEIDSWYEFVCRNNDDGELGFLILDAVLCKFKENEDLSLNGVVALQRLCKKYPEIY

B1: (dT)22 DEER (ssDNA)
DNA: UTTTTTTTTTTTTTTTTTTTTTTUT
modifications: M = 2'-aminouridine spin-labelled with isoindoline nitroxide, at the two U positions (1 and 24)
B1: the binding result is “binds”.
